The values that follow come from paper PMC2626169 (Developmental biology, 2008).

Residue numbers refer to the chain shown, from its start. In names and notes the source's numbering stands.

One test concerns the target T1, SEL-10(G567E) (C. elegans, UniProt Q93794 1-587, G567E).
T1 sequence (looked up): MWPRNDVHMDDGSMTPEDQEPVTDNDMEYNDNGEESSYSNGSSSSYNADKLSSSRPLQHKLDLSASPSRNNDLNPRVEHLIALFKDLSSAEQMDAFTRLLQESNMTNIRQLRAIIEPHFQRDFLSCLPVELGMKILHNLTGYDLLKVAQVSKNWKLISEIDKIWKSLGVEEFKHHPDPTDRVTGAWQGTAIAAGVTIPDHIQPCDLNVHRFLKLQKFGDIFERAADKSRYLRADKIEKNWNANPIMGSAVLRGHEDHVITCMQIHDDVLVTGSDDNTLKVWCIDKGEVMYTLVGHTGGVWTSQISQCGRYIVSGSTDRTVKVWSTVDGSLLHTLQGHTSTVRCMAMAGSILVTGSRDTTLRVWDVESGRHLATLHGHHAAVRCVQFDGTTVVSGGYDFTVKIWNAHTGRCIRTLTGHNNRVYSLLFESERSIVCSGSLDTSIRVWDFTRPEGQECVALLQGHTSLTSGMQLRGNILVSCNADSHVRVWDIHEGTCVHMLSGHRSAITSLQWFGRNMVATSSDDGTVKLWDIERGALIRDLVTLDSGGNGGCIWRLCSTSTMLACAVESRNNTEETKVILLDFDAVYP
In words: two-hybrid.

Another test addresses T2, SEL-10, wild type (C. elegans, UniProt Q93794 1-587).
T2 sequence (looked up): T1 sequence (looked up) with E567G
Nature of the test: two-hybrid.

B1: SKR-1 (Skp1-related 1), wild type (natural protein, C. elegans, UniProt G5ECU1 1-176, looked up)
chain: MADQKKVSEAAKEREIKISSSDNEIFLVPRNVIRLSNTINTLLMDLGLDDEEGTNAEPIPVQNVTASILKKVISWCNHHHSDPISTEDSDNREKRTDDIGSWDVEFLKVDQGTLFELILAANYLDIKGLLDVTCKTVANMIKGKSPEEIRRTFNIKNDFTPEEEEQIRKENAWCED
Take B1: the “beta-galactosidase activity (CPRG), percent of SKR-1/SEL-10” value in the test with SEL-10(G567E) was 3%.

B2: SKR-1(M140I) (natural protein, C. elegans, UniProt G5ECU1 1-176, looked up)
chain: B1 chain with M140I
On to B2, for which the “beta-galactosidase activity (CPRG), percent of SKR-1/SEL-10” value with SEL-10, wild type came out at 37%; with SEL-10(G567E), 0.4%.
